# Laboratory results reported in patent US20190169302A1 (SORRENTO THERAPEUTICS, published 2019).
# Substitutions are numbered along the chain they refer to.
# T1: human OX40 antigen (soluble, titrated in the ELISA of Example 1) (UniProt P43489 29-216)
# T1 chain: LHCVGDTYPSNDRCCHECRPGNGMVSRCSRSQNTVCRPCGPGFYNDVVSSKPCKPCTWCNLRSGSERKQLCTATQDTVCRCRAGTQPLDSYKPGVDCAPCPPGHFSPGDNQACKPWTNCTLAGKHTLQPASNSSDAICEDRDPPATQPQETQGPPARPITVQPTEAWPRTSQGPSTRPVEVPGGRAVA
# T2: membrane-bound human OX40 (on human OX40-expressing cells) (human, UniProt P43489 29-277)
# T2 construct: also called human OX40-expressing MJ cells; OX40+ HEK293-NFkB-luciferase reporter cells
# T2 sequence: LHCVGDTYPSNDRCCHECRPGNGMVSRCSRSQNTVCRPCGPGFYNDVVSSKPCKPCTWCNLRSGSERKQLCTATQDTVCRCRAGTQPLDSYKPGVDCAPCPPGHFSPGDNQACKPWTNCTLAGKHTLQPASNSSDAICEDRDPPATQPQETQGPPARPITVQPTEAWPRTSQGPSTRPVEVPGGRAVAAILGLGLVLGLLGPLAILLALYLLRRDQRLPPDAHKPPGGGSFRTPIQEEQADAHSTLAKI
# T3: Recombinant human OX40/His (UniProt P43489 29-216)
# T3 chain: T1 chain
# T4: Recombinant human OX40/His (human, UniProt P43489 29-216, limits assumed)
# T4 construct: SPR analyte; also called human OX40 proteins; not shown: His tag
# T4 sequence: T1 chain
# T5: mouse OX40 (mouse, UniProt P47741 20-211, limits assumed)
# T5 construct: Capture on Ni-NTA implies a His tag; also called mouse OX40 antigen
# T5 sequence (looked up): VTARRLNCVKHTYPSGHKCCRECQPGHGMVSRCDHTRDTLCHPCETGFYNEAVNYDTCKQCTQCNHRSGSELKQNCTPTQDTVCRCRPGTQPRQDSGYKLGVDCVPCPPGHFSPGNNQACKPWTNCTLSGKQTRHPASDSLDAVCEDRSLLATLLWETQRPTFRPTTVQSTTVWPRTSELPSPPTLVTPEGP
# B1: 5-A8 variant anti-OX40 antibody (antibody, V domains shown)
# VH: QVQLVQSGAEVKKPGASVKVSCKTSGYTFTGYYLHWVRQAPGQGLEWMGIINPSDGSTRNAQKFEGRVTMTRDTSTSTVYMELSSLSPEDTAVYYCARDLEYIGSGSLSWFDPWGQGTLVTVSS
# VL: QSALTQPASVSGSPGQSITISCTGSSSDIGGYNSVSWYQQYPGKAPKLIIYDVNNRPSGVSNRFSGSKSGNTASLTISGLQAEDEADYYCSSYTFHTGLVYVFGTGTKVTVL
# B2: 5-A6 variant anti-OX40 antibody (antibody, V domains shown)
# VH: B1 VH
# VL: B1 VL with H96D
# B3: 5-F5 variant anti-OX40 antibody (antibody, V domains shown)
# VH: B1 VH
# VL: B1 VL with F95Y, H96D
# B4: 5-G8 variant anti-OX40 antibody (antibody, V domains shown)
# VH: B1 VH
# VL: B1 VL with F95Y, H96Y, G98E
# B5: 5-H6 variant anti-OX40 antibody (antibody, V domains shown)
# VH: B1 VH
# VL: B1 VL with F95Y, H96D, T97N, G98D
# B6: 2B4 wild type anti-OX40 antibody (antibody, V domains shown)
# VH: B1 VH with V2M
# VL: QPVLTQPASVSGSPGQSITISCTGTSSDLGAYDYVSWYQQQPGQAPKLIIYDVNNRPSGVSNRFSGSKSGNTASLTISGLQAEDEADYYCSSYTSSSTLVYVFGTGTKVTVL
# notes: Fully human antibody of an IgG class, captured or detected through human Fc; the isotype control used was IgG1; also called 2B4 (WT); wild type 2B4
# B7: 5-C8 variant anti-OX40 antibody (antibody, V domains shown)
# VH: B1 VH
# VL: B1 VL with F95H, H96N
# Biological target: T1, human OX40 antigen (soluble, titrated …)
# Assay: ELISA, immobilized Ab
row,Molecule,IC50
1,B1,0.0163 mg/L
2,B2,0.0117 mg/L
3,B3,0.0263 mg/L
4,B4,0.0254 mg/L
5,B5,0.0275 mg/L
6,B6,0.168 mg/L
7,B7,0.00353 mg/L

# Biological target: T2, membrane-bound human OX40 (on human …)
# Assay: flow cytometry on human OX40-expressing MJ cells
row,Molecule,binding result
1,B6,binds

# Biological target: human OX40/His (UniProt P43489)
# Assay: SPR
row,Molecule,Kd
1,MOXR0916/RG7888,3.2 nM

# Biological target: T3, Recombinant human OX40/His
# Assay: SPR
row,Molecule,Kd
1,B6,332 nM

# Biological target: T3, Recombinant human OX40/His
# Assay: SPR
# Remark: another data set of the same source
row,Molecule,Kd
1,B1,4.37 nM
2,B2,2.41 nM
3,B3,3.01 nM
4,B4,3.8 nM
5,B5,3.51 nM
6,B6,332 nM
7,B7,4.39 nM

# Biological target: T4, Recombinant human OX40/His
# Assay: SPR (Biacore T200), antibody captured by anti-human Fc, OX40/His as analyte, 1:1 model
# Experimental: Kinetic interactions between antibodies and human OX40 proteins were measured at 25° C. using Biacore T200 surface plasmon resonance (GE Healthcare). Anti-human fragment crystallizable region (Fc region) antibody was immobilized on a CMS sensor chip to approximately 8000 resonance units (RU) using standard N-hydroxysuccinimide/N-Ethyl-N′-(3-dimethylaminopropyl) carbodiimide hydrochloride (NHS/EDC) coupling methodology. The anti-OX40 antibody (2 μg/mL) was captured for 60 seconds at a flow rate of 10 μL/minute. Recombinant human OX40/His was serially diluted in a running buffer of 0.01 M HEPES pH 7.4, 0.15 M NaCl, 3 mM EDTA, 0.05% v/v Surfactant P20 (HBS-EP+). All measurements were conducted in HBS-EP+ buffer with a flow rate of 30 μL/minute. A 1:1 (Langmuir) binding model was used to fit the data.
row,Molecule,Kd
1,B1,< 5 nM
2,B2,< 5 nM
3,B3,< 5 nM
4,B4,< 5 nM
5,B5,< 5 nM
6,B7,< 5 nM

# Biological target: T5, mouse OX40
# Assay: ELISA, OX40 antigen captured on Ni-NTA plate, antibody at 1 ug/mL
# Experimental: Ni-NTA plate was captured with 50 ul per well of human, mouse, and rhesus OX40 antigen solutions at a concentration of 1 ug/ml in PBS and incubated 1 hour at room temperature. After washing the plate with 0.05% PBS/Tween, 1 ug/mL the human anti-OX40 antibodies in Blocker™ Casein in PBS (Thermo Fisher Catalog Number: 37528) were added with 50 ul per well and incubated for one hour at room temperature. The plate was washed again with 0.05% PBS/Tween and incubated with 50 ul of Jackson Immuno Research Peroxidase AffiniPure Goat Anti-Human IgG, Fcγ Fragment (Catalog Number: 109-035-098) for one hour at room temperature. After washing, the plate was developed with 1-Step™ Ultra TMB-ELISA Substrate Solution (Thermo Fisher Catalog Number: 34028). The plate was read in the FlexStation 3 at OD 450.
row,Molecule,binding result
1,B6,no binding (tested: 1 ug/mL)
